Source: paper PMC12846365 (2026)

Assays:
[1] = biological target: 48d.cl IC as analyte in SPR (Fab-Fab-crosslinked [change]) (HIV-1 strain BG505, UniProt Q2N0S6); test: SPR
[2] = biological target: 48d IC as analyte in SPR (non-crosslinked control) (HIV-1 strain BG505, UniProt Q2N0S6); test: SPR

B1: 2mutVRC01 (antibody, V domains shown)
VH: QVQLVQSGGQMKKPGESMRISCRASGYEFIDCTLNWIRLAPGKRPEWMGWLKPRGGAVNYARPLQGRVTMTRDVYSDTAFLELRSLTVDDTAVYFCTRGKNCDYNWDFEHWGRGTPVIVSS
VL: EIVLTQSPGTLSLSPGETAIISCRTSQYGSAALAWYQQRPGQAPRLVIYSGSTRAAGIPDRFSGSRWGPDYNLTISNLESGDFGVYYCQQYEFFGQGTKVQVD
**Q.** Which Kd [1] does the source give for B1 here?
**A.** Its Kd is 520 pM.

**Q.** What about the koff [1] of the same binder?
**A.** Its koff is 0.00012 s⁻¹.

**Q.** What about the Kd [2] of the same binder?
**A.** Its Kd is 810 pM.

**Q.** What about the koff [2] of the same binder?
**A.** Its koff is 0.00031 s⁻¹.
